Test results reported in patent publication US20160272693A1 (ZEALAND PHARMA A S, published 2016).
*1 amine or outer side, *2 acyl side, *3 side chain or, on linkers, in order; H or OH if unused. Bridges are numbered along the chain shown (N, C = ends). [ ]: non-standard residue; d: D form. The star is where a group is joined. C20 diacid = O=C(O)CCCCCCCCCCCCCCCCCCC(=O)*; γGlu = O=C(O)[C@H](CCC(=O)[*:2])N[*:1]; Hyp = O=C(O)[C@@H]1C[C@@H](O)CN1; NMeI = CC[C@H](C)[C@H](NC)C(=O)O; Sar = CNCC(=O)O

T1: human amylin receptor 3 (hAMYR3), hCTR2 co-expressed with human receptor activity modifying protein 3 (hRAMP3) (human, UniProt P30988 25-474; O60896 24-148)
T1 sequence (looked up) 1: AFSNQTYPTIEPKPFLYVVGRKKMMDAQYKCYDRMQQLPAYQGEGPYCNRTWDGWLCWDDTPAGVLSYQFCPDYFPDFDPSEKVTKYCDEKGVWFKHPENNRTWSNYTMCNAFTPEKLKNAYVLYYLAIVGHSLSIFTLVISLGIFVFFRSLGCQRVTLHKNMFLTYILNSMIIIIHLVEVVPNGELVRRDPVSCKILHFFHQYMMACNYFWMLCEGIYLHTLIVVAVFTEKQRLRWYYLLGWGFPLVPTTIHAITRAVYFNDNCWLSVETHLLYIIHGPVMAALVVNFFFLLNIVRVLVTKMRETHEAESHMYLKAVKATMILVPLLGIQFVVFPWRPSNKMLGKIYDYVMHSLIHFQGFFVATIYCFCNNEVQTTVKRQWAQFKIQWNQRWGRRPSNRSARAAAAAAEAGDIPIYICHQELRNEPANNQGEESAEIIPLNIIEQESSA
T1 sequence (looked up) 2: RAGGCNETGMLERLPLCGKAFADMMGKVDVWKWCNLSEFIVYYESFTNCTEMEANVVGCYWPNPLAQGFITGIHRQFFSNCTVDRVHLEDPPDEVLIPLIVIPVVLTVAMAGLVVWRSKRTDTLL


Each binder was assayed against T1, human amylin receptor 3 (hAMYR3), hCTR2 … (assay: cell-based or functional assay).

hAMYR3 EC50 (nM); cAMP induction [nM]	Binder
0.12	{C20 diacid}-[γGlu]RCGTATCATERLAHFLHRSSF[Sar]A[NMeI]LSSTEVGSST[Hyp]-NH2 (disulfide 3-8; SMILES CC[C@H](C)[C@@H](C(=O)N[C@@H](CC(C)C)C(=O)N[C@@H](CO)C(=O)N[C@@H](CO)C(=O)N[C@H](C(=O)N[C@@H](CCC(=O)O)C(=O)N[C@H](C(=O)NCC(=O)N[C@@H](CO)C(=O)N[C@@H](CO)C(=O)N[C@H](C(=O)N1C[C@H](O)C[C@H]1C(N)=O)[C@@H](C)O)C(C)C)[C@@H](C)O)N(C)C(=O)[C@H](C)NC(=O)CN(C)C(=O)[C@H](Cc1ccccc1)NC(=O)[C@H](CO)NC(=O)[C@H](CO)NC(=O)[C@H](CCCNC(=N)N)NC(=O)[C@H](Cc1c[nH]cn1)NC(=O)[C@H](CC(C)C)NC(=O)[C@H](Cc1ccccc1)NC(=O)[C@H](Cc1c[nH]cn1)NC(=O)[C@H](C)NC(=O)[C@H](CC(C)C)NC(=O)[C@H](CCCNC(=N)N)NC(=O)[C@H](CCC(=O)O)NC(=O)[C@@H](NC(=O)[C@H](C)NC(=O)[C@@H]1CSSC[C@H](NC(=O)[C@H](CCCNC(=N)N)NC(=O)CC[C@H](NC(=O)CCCCCCCCCCCCCCCCCCC(=O)O)C(=O)O)C(=O)NCC(=O)N[C@@H]([C@@H](C)O)C(=O)N[C@@H](C)C(=O)N[C@@H]([C@@H](C)O)C(=O)N1)[C@@H](C)O) [[19CD]-isoGlu-R-C( )-GTAT-C( )-ATERLAHFLHRSSF-Gly(Me)-A-Ile(Me)-LSSTEVGSST-Hyp-NH2 (Compd. 30)]
0.12	{C20 diacid}-[γGlu]RCGTATCATERLAHFLQRSSF[Sar]A[NMeI]LSSTEVGSSTP-NH2 (disulfide 3-8; SMILES CC[C@H](C)[C@@H](C(=O)N[C@@H](CC(C)C)C(=O)N[C@@H](CO)C(=O)N[C@@H](CO)C(=O)N[C@H](C(=O)N[C@@H](CCC(=O)O)C(=O)N[C@H](C(=O)NCC(=O)N[C@@H](CO)C(=O)N[C@@H](CO)C(=O)N[C@H](C(=O)N1CCC[C@H]1C(N)=O)[C@@H](C)O)C(C)C)[C@@H](C)O)N(C)C(=O)[C@H](C)NC(=O)CN(C)C(=O)[C@H](Cc1ccccc1)NC(=O)[C@H](CO)NC(=O)[C@H](CO)NC(=O)[C@H](CCCNC(=N)N)NC(=O)[C@H](CCC(N)=O)NC(=O)[C@H](CC(C)C)NC(=O)[C@H](Cc1ccccc1)NC(=O)[C@H](Cc1c[nH]cn1)NC(=O)[C@H](C)NC(=O)[C@H](CC(C)C)NC(=O)[C@H](CCCNC(=N)N)NC(=O)[C@H](CCC(=O)O)NC(=O)[C@@H](NC(=O)[C@H](C)NC(=O)[C@@H]1CSSC[C@H](NC(=O)[C@H](CCCNC(=N)N)NC(=O)CC[C@H](NC(=O)CCCCCCCCCCCCCCCCCCC(=O)O)C(=O)O)C(=O)NCC(=O)N[C@@H]([C@@H](C)O)C(=O)N[C@@H](C)C(=O)N[C@@H]([C@@H](C)O)C(=O)N1)[C@@H](C)O) [[19CD]-isoGlu-R-C( )-GTAT-C( )-ATERLAHFLQRSSF-Gly(Me)-A-Ile(Me)-LSSTEVGSSTP-NH2 (Compd. 34)]
0.23	{C20 diacid}-[γGlu]RCGTATCATERLAHFLQRSSF[Sar]A[NMeI]LSSTEVGSFT[Hyp]-NH2 (disulfide 3-8; SMILES CC[C@H](C)[C@@H](C(=O)N[C@@H](CC(C)C)C(=O)N[C@@H](CO)C(=O)N[C@@H](CO)C(=O)N[C@H](C(=O)N[C@@H](CCC(=O)O)C(=O)N[C@H](C(=O)NCC(=O)N[C@@H](CO)C(=O)N[C@@H](Cc1ccccc1)C(=O)N[C@H](C(=O)N1C[C@H](O)C[C@H]1C(N)=O)[C@@H](C)O)C(C)C)[C@@H](C)O)N(C)C(=O)[C@H](C)NC(=O)CN(C)C(=O)[C@H](Cc1ccccc1)NC(=O)[C@H](CO)NC(=O)[C@H](CO)NC(=O)[C@H](CCCNC(=N)N)NC(=O)[C@H](CCC(N)=O)NC(=O)[C@H](CC(C)C)NC(=O)[C@H](Cc1ccccc1)NC(=O)[C@H](Cc1c[nH]cn1)NC(=O)[C@H](C)NC(=O)[C@H](CC(C)C)NC(=O)[C@H](CCCNC(=N)N)NC(=O)[C@H](CCC(=O)O)NC(=O)[C@@H](NC(=O)[C@H](C)NC(=O)[C@@H]1CSSC[C@H](NC(=O)[C@H](CCCNC(=N)N)NC(=O)CC[C@H](NC(=O)CCCCCCCCCCCCCCCCCCC(=O)O)C(=O)O)C(=O)NCC(=O)N[C@@H]([C@@H](C)O)C(=O)N[C@@H](C)C(=O)N[C@@H]([C@@H](C)O)C(=O)N1)[C@@H](C)O) [[19CD]-isoGlu-R-C( )-GTAT-C( )-ATERLAHFLQRSSF-Gly(Me)-A-Ile(Me)-LSSTEVGSFT-Hyp-NH2 (Compd. 32)]
0.2	{C20 diacid}-[γGlu]RCNTATCATQRLANFLHRSSF[Sar]A[NMeI]LSSTEVGSETP-NH2 (disulfide 3-8) [[19CD]-isoGlu-R-C( )-NTAT-C( )-ATQRLANFLHRSSF-Gly(Me)-A-Ile(Me)-LSSTEVGSETP-NH2 (Compd. 3)]
0.11	{C20 diacid}-[γGlu]RCGTATCATERLAHFLNRSSF[Sar]A[NMeI]LSSTEVGSSTP-NH2 (disulfide 3-8; SMILES CC[C@H](C)[C@@H](C(=O)N[C@@H](CC(C)C)C(=O)N[C@@H](CO)C(=O)N[C@@H](CO)C(=O)N[C@H](C(=O)N[C@@H](CCC(=O)O)C(=O)N[C@H](C(=O)NCC(=O)N[C@@H](CO)C(=O)N[C@@H](CO)C(=O)N[C@H](C(=O)N1CCC[C@H]1C(N)=O)[C@@H](C)O)C(C)C)[C@@H](C)O)N(C)C(=O)[C@H](C)NC(=O)CN(C)C(=O)[C@H](Cc1ccccc1)NC(=O)[C@H](CO)NC(=O)[C@H](CO)NC(=O)[C@H](CCCNC(=N)N)NC(=O)[C@H](CC(N)=O)NC(=O)[C@H](CC(C)C)NC(=O)[C@H](Cc1ccccc1)NC(=O)[C@H](Cc1c[nH]cn1)NC(=O)[C@H](C)NC(=O)[C@H](CC(C)C)NC(=O)[C@H](CCCNC(=N)N)NC(=O)[C@H](CCC(=O)O)NC(=O)[C@@H](NC(=O)[C@H](C)NC(=O)[C@@H]1CSSC[C@H](NC(=O)[C@H](CCCNC(=N)N)NC(=O)CC[C@H](NC(=O)CCCCCCCCCCCCCCCCCCC(=O)O)C(=O)O)C(=O)NCC(=O)N[C@@H]([C@@H](C)O)C(=O)N[C@@H](C)C(=O)N[C@@H]([C@@H](C)O)C(=O)N1)[C@@H](C)O) [[19CD]-isoGlu-R-C( )-GTAT-C( )-ATERLAHFLNRSSF-Gly(Me)-A-Ile(Me)-LSSTEVGSSTP-NH2 (Compd. 35)]
0.15	{C20 diacid}-[γGlu]RCGTATCATERLAHFLNRSSF[Sar]A[NMeI]LSSTEVGSFT[Hyp]-NH2 (disulfide 3-8; SMILES CC[C@H](C)[C@@H](C(=O)N[C@@H](CC(C)C)C(=O)N[C@@H](CO)C(=O)N[C@@H](CO)C(=O)N[C@H](C(=O)N[C@@H](CCC(=O)O)C(=O)N[C@H](C(=O)NCC(=O)N[C@@H](CO)C(=O)N[C@@H](Cc1ccccc1)C(=O)N[C@H](C(=O)N1C[C@H](O)C[C@H]1C(N)=O)[C@@H](C)O)C(C)C)[C@@H](C)O)N(C)C(=O)[C@H](C)NC(=O)CN(C)C(=O)[C@H](Cc1ccccc1)NC(=O)[C@H](CO)NC(=O)[C@H](CO)NC(=O)[C@H](CCCNC(=N)N)NC(=O)[C@H](CC(N)=O)NC(=O)[C@H](CC(C)C)NC(=O)[C@H](Cc1ccccc1)NC(=O)[C@H](Cc1c[nH]cn1)NC(=O)[C@H](C)NC(=O)[C@H](CC(C)C)NC(=O)[C@H](CCCNC(=N)N)NC(=O)[C@H](CCC(=O)O)NC(=O)[C@@H](NC(=O)[C@H](C)NC(=O)[C@@H]1CSSC[C@H](NC(=O)[C@H](CCCNC(=N)N)NC(=O)CC[C@H](NC(=O)CCCCCCCCCCCCCCCCCCC(=O)O)C(=O)O)C(=O)NCC(=O)N[C@@H]([C@@H](C)O)C(=O)N[C@@H](C)C(=O)N[C@@H]([C@@H](C)O)C(=O)N1)[C@@H](C)O) [[19CD]-isoGlu-R-C( )-GTAT-C( )-ATERLAHFLNRSSF-Gly(Me)-A-Ile(Me)-LSSTEVGSFT-Hyp-NH2 (Compd. 33)]
0.29	{C20 diacid-γGlu}-RCGTATCATERLAHFLVRSSF[Sar]A[NMeI]LSSTEVGSST[Hyp]-NH2 (disulfide 2-7; SMILES CC[C@H](C)[C@@H](C(=O)N[C@@H](CC(C)C)C(=O)N[C@@H](CO)C(=O)N[C@@H](CO)C(=O)N[C@H](C(=O)N[C@@H](CCC(=O)O)C(=O)N[C@H](C(=O)NCC(=O)N[C@@H](CO)C(=O)N[C@@H](CO)C(=O)N[C@H](C(=O)N1C[C@H](O)C[C@H]1C(N)=O)[C@@H](C)O)C(C)C)[C@@H](C)O)N(C)C(=O)[C@H](C)NC(=O)CN(C)C(=O)[C@H](Cc1ccccc1)NC(=O)[C@H](CO)NC(=O)[C@H](CO)NC(=O)[C@H](CCCNC(=N)N)NC(=O)[C@@H](NC(=O)[C@H](CC(C)C)NC(=O)[C@H](Cc1ccccc1)NC(=O)[C@H](Cc1c[nH]cn1)NC(=O)[C@H](C)NC(=O)[C@H](CC(C)C)NC(=O)[C@H](CCCNC(=N)N)NC(=O)[C@H](CCC(=O)O)NC(=O)[C@@H](NC(=O)[C@H](C)NC(=O)[C@@H]1CSSC[C@H](NC(=O)[C@H](CCCNC(=N)N)NC(=O)CC[C@H](NC(=O)CCCCCCCCCCCCCCCCCCC(=O)O)C(=O)O)C(=O)NCC(=O)N[C@@H]([C@@H](C)O)C(=O)N[C@@H](C)C(=O)N[C@@H]([C@@H](C)O)C(=O)N1)[C@@H](C)O)C(C)C) [[19CD]-isoGlu-R-C( )-GTAT-C( )-ATERLAHFLVRSSF-Gly(Me)-A-Ile(Me)-LSSTEVGSST-Hyp-NH2 (Compd. 31)]
